# Data from US9969998B2, “Compositions of adenosine deaminase-2 (ADA2), variants thereof and methods of using same” (Halozyme, Inc., priority 2014, dated 2018).
# Where two headings read alike, the source gives them in different places.
# T1: ADA2 (Homo sapiens, UniProt Q9NZK5)
# T1 sequence (Q9NZK5 30-511): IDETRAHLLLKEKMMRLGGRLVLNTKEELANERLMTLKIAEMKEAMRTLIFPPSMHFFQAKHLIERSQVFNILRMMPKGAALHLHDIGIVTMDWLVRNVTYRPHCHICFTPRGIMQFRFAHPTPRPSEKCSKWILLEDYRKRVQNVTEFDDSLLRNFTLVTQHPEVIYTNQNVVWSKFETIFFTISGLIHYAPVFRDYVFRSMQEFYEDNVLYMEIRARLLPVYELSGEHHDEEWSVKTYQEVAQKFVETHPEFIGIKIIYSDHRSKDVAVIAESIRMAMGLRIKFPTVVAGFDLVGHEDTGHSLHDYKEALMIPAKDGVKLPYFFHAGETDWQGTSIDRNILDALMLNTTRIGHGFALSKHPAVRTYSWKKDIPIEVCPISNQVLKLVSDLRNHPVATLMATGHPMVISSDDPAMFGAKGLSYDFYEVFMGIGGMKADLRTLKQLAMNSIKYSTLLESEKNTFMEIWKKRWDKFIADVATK
# Legend:
# [1] = target: T1, ADA2; settings: cited from earlier work
# [2] = mouse, in vivo, iv, 7.5 mg/kg
# [3] = Thermal stability by differential scanning fluorimetry (DSF); assay type: physicochemical; settings: 0.1-1 mg/mL protein
# Experimental: The stability of the rHuADA2 WT and variants was measured by differential scanning fluorimetry (DSF) at increasing temperatures. DSF measures conformational stability, which correlates with thermal stability. The melting temperature (Tm) in DSF is defined as the midpoint of the protein unfolding transition.
# Non-PEGylated WT rHuADA2, non-PEGylated rHuADA2 variants, and PEGylated forms of WT rHuADA2 and rHuADA2 variants were prepared at concentrations of 0.1-1 mg/mL and mixed with the ROX™ protein thermal shift dye (Applied Biosystems, Carlsbad, Calif.; Cat. No. 4461146) to a final dye concentration that corresponds to a 125-fold dilution of the stock ROX™ solution. Protein samples were then loaded into 96-well plate at a volume of 20 μL/well in triplicate. A ViiA7 RT-PCR System (Applied Biosystems, Carlsbad, Calif.) was used to measure the shift in fluorescence as the temperature of the samples were increased. The reactions were subjected to the following steps: incubation at 25° C. for 2 min; ramping of temperature from 25 to 99° C. at a rate of 0.05° C. per second; followed by a 99° C. incubation for 2 min. The wavelengths used for emission and excitation were 623 nanometers (nm) and 580 nm, respectively.
# [4] = Heparin binding capture ELISA (biotin-heparin on streptavidin plate); settings: PEGylated and non-PEGylated forms (Table 22)
# Experimental: Heparin binding of PEGylated rHuADA2 or variants was assessed by capture ELISA. Binding of rHuADA1 was assessed as a negative control. 100 μL of 0.2 mg/mL biotin-heparin (Sigma-Aldrich, St. Louis, Mo.; Cat No. B9806-10MG) was added to a streptavidin coated 96-well plate (Thermo Fisher Scientific, Rockford, Ill.; Cat. No. 15520), and incubated at room temperature for 1 hour. The plate was washed 6 times with PBS. Then, 150 μL of […] rHuADA2 was added to the heparin coated plate, titrated in 3× serial dilutions, and incubated at room temperature for 2 hours. The plate was then washed 6 times with PBS. A 1000× dilution of goat HRP-anti-FLAG pAb (Abcam, Cambridge, UK; Cat. No. Ab1238) was added to the ELISA plate and incubated at room temperature for 1 hour. The ELISA plate was then washed 6 times with phosphate buffered saline with Tween (PBST) and developed with the 3,3′,5,5′-Tetramethylbenzidine (TMB) substrate solution (Pierce, Thermo Fisher Scientific, Rockford, Ill.) according the manufacturer's instructions and reading the optical density at 450 nm (OD450) on a plate reader.
# [5] = Adenosine deaminase (ADA) enzymatic activity assay kit; assay type: biochemical
# [6] = cited from earlier work
# [7] = Stability of ADA activity in plasma; assay type: in vitro ADME, mouse; settings: long incubation (e.g., 24 hours) in plasma
# Experimental: For therapeutic uses, such as for treatment of tumors or cancers, it is desirable to administer to the subject a dosage of ADA2 that will maintain plasma adenosine deaminase (ADA) activity for a sufficient time for therapeutic effect. […] The plasma stability of any ADA2 described herein, such as a wildtype, variant or conjugate, can be determined by measuring the changes in enzymatic activity and/or other physical properties, before and after incubation in plasma, e.g., ex vivo mammalian plasma.
# Stability can be assessed in vitro or in vivo. For example, stability can be tested after exposure to plasma for a desired length of time, which can be empirically determined or selected by a skilled artisan depending on the desired length of time. For example, the incubation time can be at least 1 hour, such as at least 2, 3, 4, 5, 10, 15, 20, 24, 30, 36, 48, 60, 72 hours or more. The protein can be directly administered systemically, such as intravenously, and activity can be assessed. In other examples, the protein can be subject to appropriate incubation conditions in vitro. In one example, the stability of ADA activity of any ADA2 provided herein can be measured after incubation at 37° C., in 25% ex vivo plasma or serum, such as human or non-human plasma or serum, for example, mouse plasma. […]
# [8] = adenosine deaminase activity, cited from earlier work
# [9] = Heparin binding ELISA (heparin coated microtiter plate); settings: for Average OD450, heparin binding ELISA: 3 μM protein
# Procedure, shortened: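 Plates coated with 200 μg/mL heparin in Na2CO3 buffer pH 9.6 overnight at 4° C, then milk-blocked. FLAG-tagged rHuADA2 variants added at 3 μM for 2 h at room temperature. Bound protein detected with HRP-anti-FLAG and TMB, read as OD450.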
# [10] = 37° C.; for Plasma incubated mean adenosine deaminase activity: 0.17 mg/ml in 25% BALB/c mouse plasma; for PBS incubated mean adenosine deaminase activity: 0.17 mg/ml in PBS 0.2% BSA
molecule,measurement,setting,value
OC[C@H]1O[C@@H](n2cnc3c2N=CNC[C@H]3O)C[C@@H]1O [2′-deoxycoformycin],inhibition of ADA2,[1],potent inhibitors
"PEG-WT ADA2: WT rHuADA2 PEGylated with linear PEG-20K (conjugate, UniProt Q9NZK5 30-511, looked up, linear PEG-20K, WT rHuADA2 PEGylated with linear PEG-20K) Adenosine deaminase 2: IDETRAHLLLKEKMMRLGGRLVLNTKEELANERLMTLKIAEMKEAMRTLIFPPSMHFFQAKHLIERSQVFNILRMMPKGAALHLHDIGIVTMDWLVRNVTYRPHCHICFTPRGIMQFRFAHPTPRPSEKCSKWILLEDYRKRVQNVTEFDDSLLRNFTLVTQHPEVIYTNQNVVWSKFETIFFTISGLIHYAPVFRDYVFRSMQEFYEDNVLYMEIRARLLPVYELSGEHHDEEWSVKTYQEVAQKFVETHPEFIGIKIIYSDHRSKDVAVIAESIRMAMGLRIKFPTVVAGFDLVGHEDTGHSLHDYKEALMIPAKDGVKLPYFFHAGETDWQGTSIDRNILDALMLNTTRIGHGFALSKHPAVRTYSWKKDIPIEVCPISNQVLKLVSDLRNHPVATLMATGHPMVISSDDPAMFGAKGLSYDFYEVFMGIGGMKADLRTLKQLAMNSIKYSTLLESEKNTFMEIWKKRWDKFIADVATK",AUC (mU * h)/mL,[2],"1,444,000 (mU * h)/mL"
same,Half life slow (t1/2),[2],13.6 h
same,Percent increase in AUC compared to WT ADA2,[2],4291%
same,Percent increase in t1/2 compared to WT ADA2,[2],1078%
same,"Tm, melting temperature by DSF",[3],68.81 °C
same,"Average OD450, heparin binding capture ELISA",[4],0.75
same,adenosine deaminase activity mU/mL,[5]; PEGylated and non-PEGylated forms (Table 23),124.2 mU/mL
same,% of WT adenosine deaminase activity,[5]; Table 23,102.2%
"ADA1: human adenosine deaminase 1, monomer, SEQ ID NO:12 (protein, listed as Homo sapiens, ADA1 protein; ref <300>: PUBLICATION INFORMATION:; ref <308>: DATABASE ACCESSION NUMBER: NCBI NP_000013.2; ref <309>: DATABASE ENTRY DATE: 2014-05-03) MAQTPAFDKPKVELHVHLDGSIKPETILYYGRRRGIALPANTAEGLLNVIGMDKPLTLPDFLAKFDYYMPAIAGCREAIKRIAYEFVEMKAKEGVVYVEVRYSPHLLANSKVEPIPWNQAEGDLTPDEVVALVGQGLQEGERDFGVKARSILCCMRHQPNWSPKVVELCKKYQQQTVVAIDLAGDETIPGSSLLPGHVQAYQEAVKSGIHRTVHAGEVGSAEVVKEAVDILKTERLGHGYHTLEDQALYNRLRQENMHFEICPWSSYLTGAWKPDTEHAVIRLKNDQANYSLNTDDPLIFKSTLDTDYQMTKRDMGFTEEEFKRLNINAAKSSFLPEDEKRELLDLLYKAYGMPPSASAGQNL",Km,"[6]; for adenosine, wild-type enzyme in humans, read-out: Km",~52 µM
same,Km,[6]; read-out: Km for adenosine,~100 µM
same,stability in plasma,[7],substantially less stable
same,pH optimum,[8],~7.5
same,pH optimum,[8]; listed as ADA′,7.5
"WT ADA1: recombinant human adenosine deaminase 1 with Strep-tag, mature SEQ ID NO:66/67 (protein, listed as Homo sapiens, Strep-tag; mature ADA1 protein; mature ADA1-linker-Strep) chain 1: AQTPAFDKPKVELHVHLDGSIKPETILYYGRRRGIALPANTAEGLLNVIGMDKPLTLPDFLAKFDYYMPAIAGCREAIKRIAYEFVEMKAKEGVVYVEVRYSPHLLANSKVEPIPWNQAEGDLTPDEVVALVGQGLQEGERDFGVKARSILCCMRHQPNWSPKVVELCKKYQQQTVVAIDLAGDETIPGSSLLPGHVQAYQEAVKSGIHRTVHAGEVGSAEVVKEAVDILKTERLGHGYHTLEDQALYNRLRQENMHFEICPWSSYLTGAWKPDTEHAVIRLKNDQANYSLNTDDPLIFKSTLDTDYQMTKRDMGFTEEEFKRLNINAAKSSFLPEDEKRELLDLLYKAYGMPPSASAGQNL chain 2: AQTPAFDKPKVELHVHLDGSIKPETILYYGRRRGIALPANTAEGLLNVIGMDKPLTLPDFLAKFDYYMPAIAGCREAIKRIAYEFVEMKAKEGVVYVEVRYSPHLLANSKVEPIPWNQAEGDLTPDEVVALVGQGLQEGERDFGVKARSILCCMRHQPNWSPKVVELCKKYQQQTVVAIDLAGDETIPGSSLLPGHVQAYQEAVKSGIHRTVHAGEVGSAEVVKEAVDILKTERLGHGYHTLEDQALYNRLRQENMHFEICPWSSYLTGAWKPDTEHAVIRLKNDQANYSLNTDDPLIFKSTLDTDYQMTKRDMGFTEEEFKRLNINAAKSSFLPEDEKRELLDLLYKAYGMPPSASAGQNLSGSGSWSHPQFEK","Average OD450, heparin binding ELISA",[9]; Set 1,0.07
same,"Average OD450, heparin binding ELISA",[9]; Set 2,0.06
same,Heparin Binding ELISA Average OD450,[9]; single and S265N combination variants (Table 34),−0.02
same,Plasma incubated mean adenosine deaminase activity,[10]; 0 hr,"71,663.6 mU/mL"
same,PBS incubated mean adenosine deaminase activity,[10]; 0 hr,"61,077.0 mU/mL"
same,Plasma incubated mean adenosine deaminase activity,[10]; 4 hr,"46,772.1 mU/mL"
same,PBS incubated mean adenosine deaminase activity,[10]; 4 hr,"59,544.8 mU/mL"
same,activity retained in PBS/BSA control,[10]; 24 hours,greater than 80%
same,activity retained after treatment with plasma,"[10]; 24 hours, mouse plasma",less than 1%
same,Plasma incubated mean adenosine deaminase activity,[10]; 24 hr,673.6 mU/mL
same,PBS incubated mean adenosine deaminase activity,[10]; 24 hr,"50,287.9 mU/mL"
same,"Average OD450, heparin binding capture ELISA",[4],<0.02
